Data as given in article PMC9884024 (2022).

B1: MdHY5 (as used in the BLI assay) (natural protein)
chain: MQEQATSSLAASSLPSSSERSSSSAFHLEVKEGMESDEEIGRVPEIGGESAGASASARENGLLAGPDQVQTAGESQRKRGRNPADKESKRLKRLLRNRVSAQQARERKKAYLNDLEVRVKELEQKNSELDERLSTLQNENQMLRHILKNTTASRRGADGGANAD
B2: MdMPK6-02G (as used in the BLI assay) (enzyme)
chain: MEGGGRSADTMMSEAAPPSQPDPNHPQQHPPPPHHAMGGVESIPATLSHGGRFIQYNIFGNVFEVTAKYKPPIMPIGKGAYGIVCSALNSETNEHVAVKKIANAFDNRIDAKRTLREIKLLRHMDHENVVAIRDIIPPPQRNFFNDVYIAYELMDTDLHQIIRSNQALSEEHCQYFLYQILRGLKYIHSANVLHRDLKPSNLLLNANCDLKICDFGLARVTSETDFMTEYVVTRWYRAPELLLNSSDYTAAIDVWSVGCIFMELMDRKPLFPGRDHVHQLRLLMELIGTPSEAELQFLNENAKRYIRQLPLYRRQSFTEKFPHVHPSAIDLVEKMLTFDPTRRITVEDALAHPYLTSLHDISDEPVCLTPFSFDFEQHALSEEQMKELIYREALAFNPEYQRQ

What was measured:
Assay in all cases: BLI
[1] = target: MdMPK6-15G (as used in the BLI assay) (Malus domestica (apple))
[2] = target: B1
[3] = target: B1

B1
Kd [1]: 93.9 nM
koff [1]: 0.00105 s⁻¹

B2
koff [2]: 0.00355 s⁻¹
Kd [3]: 119 nM
